Test results published in article PMC8774819.

Target: BES1-MBP (Arabidopsis thaliana, UniProt Q9LN63 1-335)
Test: EMSA

Chain of BES1-MBP (Q9LN63 whole entry): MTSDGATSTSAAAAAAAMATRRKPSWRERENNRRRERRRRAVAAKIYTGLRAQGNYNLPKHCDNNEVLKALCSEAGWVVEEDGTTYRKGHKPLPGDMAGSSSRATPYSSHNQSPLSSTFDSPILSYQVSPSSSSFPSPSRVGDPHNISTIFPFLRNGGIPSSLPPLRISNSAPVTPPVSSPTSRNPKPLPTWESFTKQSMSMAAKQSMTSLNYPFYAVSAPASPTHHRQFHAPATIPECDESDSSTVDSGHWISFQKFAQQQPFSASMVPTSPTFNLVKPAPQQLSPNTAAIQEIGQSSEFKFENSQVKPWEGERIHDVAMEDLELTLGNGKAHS

Row | Binder | binding result
1 | WOX4 promoter probe a (dsDNA) DNA 1: CCATCTGATCACAGCTTGACACACGAATCAGGTTATCCATCGTGTGA DNA 2: TCACACGATGGATAACCTGATTCGTGTGTCAAGCTGTGATCAGATGG | binds
2 | WOX4 promoter probe c (dsDNA) DNA 1: GTAACGAGAAAGGCATGCATAGCATTTGCTAGTTTTAACATATAGCA DNA 2: TGCTATATGTTAAAACTAGCAAATGCTATGCATGCCTTTCTCGTTAC | binds
